Measured values published in paper PMC4325132 (FEBS Open Bio, 2015).

What was measured:
[1] = target: mouse cardiac TnI A117G mutation (mouse, UniProt P48787 1-211, A117G); assay: ELISA
[2] = target: mouse cardiac TnI K118C mutation (mouse, UniProt P48787 1-211, K118C); assay: ELISA
Chain of mouse cardiac TnI K118C mutation (P48787 whole entry K118C): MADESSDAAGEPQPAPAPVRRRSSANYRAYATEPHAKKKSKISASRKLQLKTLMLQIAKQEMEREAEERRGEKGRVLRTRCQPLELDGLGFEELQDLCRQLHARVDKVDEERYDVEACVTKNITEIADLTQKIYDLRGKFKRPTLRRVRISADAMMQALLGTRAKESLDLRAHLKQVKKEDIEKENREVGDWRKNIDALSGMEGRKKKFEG

Chain of mouse cardiac TnI A117G mutation (P48787 whole entry A117G): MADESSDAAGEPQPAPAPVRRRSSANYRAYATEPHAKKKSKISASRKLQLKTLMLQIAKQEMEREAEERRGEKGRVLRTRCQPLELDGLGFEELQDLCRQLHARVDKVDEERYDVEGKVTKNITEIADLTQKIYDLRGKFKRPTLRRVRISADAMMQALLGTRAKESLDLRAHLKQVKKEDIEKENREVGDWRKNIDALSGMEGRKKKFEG

B1: Chicken fast TnC (natural protein)
chain: not shown
- binding result [1]: binds
- binding result [2]: binds
